{"source": "paper PMC4627090", "about": "“Slicer-independent mechanism drives small-RNA strand separation during human RISC assembly”", "target": "recombinant human AGO2 (rhAGO2) (Homo sapiens, UniProt Q9UKV8 1-859)", "sequence (Q9UKV8 whole entry)": "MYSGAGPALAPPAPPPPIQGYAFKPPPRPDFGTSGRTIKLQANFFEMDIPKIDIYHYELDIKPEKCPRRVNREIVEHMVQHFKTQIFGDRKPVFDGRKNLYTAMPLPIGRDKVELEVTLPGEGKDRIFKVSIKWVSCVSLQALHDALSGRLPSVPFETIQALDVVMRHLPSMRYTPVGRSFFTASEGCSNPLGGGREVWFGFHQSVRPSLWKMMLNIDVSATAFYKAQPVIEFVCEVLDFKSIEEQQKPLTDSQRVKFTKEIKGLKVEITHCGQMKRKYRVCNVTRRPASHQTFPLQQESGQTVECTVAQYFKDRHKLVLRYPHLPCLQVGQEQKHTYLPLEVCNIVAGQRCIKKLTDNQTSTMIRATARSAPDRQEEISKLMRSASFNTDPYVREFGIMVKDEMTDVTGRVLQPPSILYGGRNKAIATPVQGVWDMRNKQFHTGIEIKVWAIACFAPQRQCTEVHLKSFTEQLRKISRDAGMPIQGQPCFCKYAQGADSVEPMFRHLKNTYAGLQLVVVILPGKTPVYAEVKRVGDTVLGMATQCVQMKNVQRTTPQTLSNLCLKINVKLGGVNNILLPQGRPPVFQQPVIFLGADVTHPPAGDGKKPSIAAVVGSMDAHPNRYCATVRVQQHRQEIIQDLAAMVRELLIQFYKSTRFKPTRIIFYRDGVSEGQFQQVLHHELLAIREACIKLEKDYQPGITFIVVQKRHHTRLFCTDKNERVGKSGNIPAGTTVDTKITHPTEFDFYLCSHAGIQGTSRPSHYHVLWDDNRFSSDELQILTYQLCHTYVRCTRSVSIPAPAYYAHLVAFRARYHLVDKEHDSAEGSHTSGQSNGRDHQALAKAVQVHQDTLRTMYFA", "assay": "EMSA; 25 C; EMSA: 10 mM HEPES-KOH pH 7.4, 50 mM KCl, 1 mM DTT, 3% Ficoll-400, 0.1 mg/ml BSA, 10 nM RNA, 0-200 nM hAGO2, 30 min at 25 or 37 C, 6% native gel at 4 C; RISC assembly in HEK293T lysate at 0.75-3.75 mM Mg2+, 25 or 37 C", "details": "protein: recombinant; tags: N-terminal FLAG and His; label: 32P; single strand"}
{"binder": "UGGAAUGUAAAGAAGUAUGUA (ssRNA)", "note": "[miR-1 guide ssRNA]", "values": [{"measurement": "Kd", "result": "~44.4", "unit": "nM"}]}
